The text below walks through data of publication PMC10925351 (bioRxiv, 2025).

What all share (assay): reconstitution of a complex by mixing purified proteins
Experiment [1] has as its target Clb2-Cdk1 complex (wild-type Clb2) (S. cerevisiae, UniProt P24869;P00546, phosphothreonine at T169 (by Cak1)).
Experiment [2] deals with T1, Clb2 (wild-type), 6xHis-tagged (S. cerevisiae, UniProt P24869 1-491).
T1 sequence: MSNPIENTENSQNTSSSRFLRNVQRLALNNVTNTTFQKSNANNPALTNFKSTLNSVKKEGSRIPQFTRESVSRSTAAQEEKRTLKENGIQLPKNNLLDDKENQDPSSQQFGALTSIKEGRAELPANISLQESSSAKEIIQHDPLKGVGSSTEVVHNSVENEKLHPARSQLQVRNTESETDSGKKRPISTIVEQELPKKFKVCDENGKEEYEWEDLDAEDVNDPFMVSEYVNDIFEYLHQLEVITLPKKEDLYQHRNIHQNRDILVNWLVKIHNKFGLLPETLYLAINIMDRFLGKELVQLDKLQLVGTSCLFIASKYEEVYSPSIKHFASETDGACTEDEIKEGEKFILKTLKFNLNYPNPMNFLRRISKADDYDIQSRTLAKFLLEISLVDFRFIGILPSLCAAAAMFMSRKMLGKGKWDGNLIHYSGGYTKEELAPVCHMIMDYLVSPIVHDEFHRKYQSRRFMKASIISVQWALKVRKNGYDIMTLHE

The target in experiment [3] is T2, Clb2-pp mutant (R366A, R379A, K383A), 6xHis-tagged (S. cerevisiae, UniProt P24869 1-491, R366A | R379A | K383A).
T2 sequence: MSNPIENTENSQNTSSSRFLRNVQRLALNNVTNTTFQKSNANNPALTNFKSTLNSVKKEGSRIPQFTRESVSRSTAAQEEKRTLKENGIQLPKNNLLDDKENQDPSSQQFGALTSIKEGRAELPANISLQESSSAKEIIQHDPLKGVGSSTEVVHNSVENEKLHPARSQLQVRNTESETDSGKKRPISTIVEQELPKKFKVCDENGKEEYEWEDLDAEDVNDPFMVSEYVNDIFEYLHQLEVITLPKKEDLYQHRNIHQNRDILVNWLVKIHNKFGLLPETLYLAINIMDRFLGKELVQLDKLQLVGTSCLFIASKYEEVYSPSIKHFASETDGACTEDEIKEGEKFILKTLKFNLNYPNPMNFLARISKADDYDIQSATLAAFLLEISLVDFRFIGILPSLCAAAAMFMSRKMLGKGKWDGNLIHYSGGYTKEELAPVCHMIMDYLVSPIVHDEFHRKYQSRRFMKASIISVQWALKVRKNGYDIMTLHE

Sequence of Clb2-Cdk1 complex (wild-type Clb2) (P00546 whole entry, one chain of several): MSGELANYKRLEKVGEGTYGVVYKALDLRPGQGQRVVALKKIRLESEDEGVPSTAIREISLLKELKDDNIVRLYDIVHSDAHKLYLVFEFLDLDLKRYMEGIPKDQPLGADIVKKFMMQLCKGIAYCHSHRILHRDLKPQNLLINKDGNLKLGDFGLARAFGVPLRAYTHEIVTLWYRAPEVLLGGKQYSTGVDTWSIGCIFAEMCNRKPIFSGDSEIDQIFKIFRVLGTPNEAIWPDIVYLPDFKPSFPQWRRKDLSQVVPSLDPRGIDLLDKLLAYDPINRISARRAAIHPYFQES

B1: Cks1 (wild-type) (natural protein)
chain: MYHHYHAFQGRKLTDQERARVLEFQDSIHYSPRYSDDNYEYRHVMLPKAMLKVIPSDYFNSEVGTLRILTEDEWRGLGITQSLGWEHYECHAPEPHILLFKRPLNYEAELRAATAAAQQQQQQQQQQQQQQQQHQTQSISNDMQVPPQIS
As for B1, the binding result in experiment [1] is given as “binds”.

B2: Cks1 mutant (R33E, S82E, R102A) (natural protein)
chain: MYHHYHAFQGRKLTDQERARVLEFQDSIHYSPEYSDDNYEYRHVMLPKAMLKVIPSDYFNSEVGTLRILTEDEWRGLGITQELGWEHYECHAPEPHILLFKAPLNYEAELRAATAAAQQQQQQQQQQQQQQQQHQTQSISNDMQVPPQIS
On to B2, for which the binding result in experiment [1] is “binds”.

B3: Cdk1 (Cdc28), T169-phosphorylated, from a GST-TEV-Cdk1 fusion (enzyme)
chain: not shown
modifications: phosphothreonine at T169 (by Cak1)
Turning to B3, the binding result in experiment [2] and in experiment [3] was “binds” in each case.
